In publication doi:10.1101/2020.06.22.166298:

Target: MBP-FhtR (Faecalis heme transport Regulator fused to the maltose binding protein) (Enterococcus faecalis OG1RF)
Test: SEC

MBP-FhtR (Faecalis heme transport Regulator fused to the maltose binding protein) (natural protein)
stoichiometry N: 2
